Laboratory results as given in article doi:10.1101/2025.04.14.648684.

Experiments:
[1] = target: All4144 (GrpE homolog of Anabaena sp. PCC 7120), full length (Anabaena sp. PCC7120); experiment: cross-linking
[2] = target: All4144(68–214), N-terminal deletion mutant of All4144 lacking the HTH domain (Anabaena sp. PCC7120); experiment: cross-linking

Row | stoichiometry N [1] | stoichiometry N [2] | Substance
1 | 2 | – | All4144 (GrpE homolog of Anabaena sp. PCC 7120), full length (natural protein)
2 | – | 2 | All4144(68–214), N-terminal deletion mutant of All4144 lacking the HTH domain (domain or fragment)
